Legend:
[1] = substrate: NCCCOc1ccc(Cl)cc1-c1nc2ccc(Cl)cc2c(=O)[nH]1; assay: Enzymatic kinetics of MAO-HPQ 1 oxidation (Lineweaver-Burk plot), MAO A; assay type: biochemical; conditions: other: MAO A, Tris-buffer 100 mM pH 7.90, 25° C., pH 7.9
Protocol: (§1) The enzyme kinetics was carried out in Tris-buffer (100 mM, pH 7.90) at 25° C. The enzymatic oxidation of fluorogenic substrate MAO-HPQ 1 was monitored in Varian Cary eclipse Fluorescence spectrophotometer. To a series of different MAO-HPQ 1 substrate concentration (ranged from 0˜250 μM) were added a solution of MAO A or MAO B enzyme with final concentration of […] was added to adjust the final volume to 100 μl. The rate of enzymatic oxidation was monitored with the increase of fluorescent enhancement at 530 nm. The values of the enzyme kinetic parameters (Km and Kcat) were determined from the standard Lineweaver-Burk plot, the double-reciprocal plot of the reaction rate versus MAO-HPQ 1 concentration.
(§2) Measurement of the fluorescent signal at different substrate concentrations provided the Michaelis-Menten kinetics constants.

[2] = substrate: NCCCOc1ccc(Cl)cc1-c1nc2ccc(Cl)cc2c(=O)[nH]1; assay: Enzymatic kinetics of MAO-HPQ 1 oxidation (Lineweaver-Burk plot), MAO B; assay type: biochemical; conditions: other: MAO B, Tris-buffer 100 mM pH 7.90, 25° C., pH 7.9
Protocol: as §1, §2

| Protein | Km [1] [µM] | kcat [1] [s⁻¹] | Km [2] [µM] | kcat [2] [s⁻¹] | kcat/Km [2] [M⁻¹ s⁻¹] |
| --- | --- | --- | --- | --- | --- |
| MAO A (Homo sapiens) (protein, purchased Sigma Aldrich) MENQEKASIAGHMFDVVVIGGGISGLSAAKLLTEYGVSVLVLEARDRVGGRTYTIRNEHVDYVDVGGAYVGPTQNRILRLSKELGIETYKVNVSERLVQYVKGKTYPFRGAFPPVWNPIAYLDYNNLWRTIDNMGKEIPTDAPWEAQHADKWDKMTMKELIDKICWTKTARRFAYLFVNINVTSEPHEVSALWFLWYVKQCGGTTRIFSVTNGGQERKFVGGSGQVSERIMDLLGDQVKLNHPVTHVDQSSDNIIIETLNHEHYECKYVINAIPPTLTAKIHFRPELPAERNQLIQRLPMGAVIKCMMYYKEAFWKKKDYCGCMIIEDEDAPISITLDDTKPDGSLPAIMGFILARKADRLAKLHKEIRKKKICELYAKVLGSQEALHPVHYEEKNWCEEQYSGGCYTAYFPPGIMTQYGRVIRQPVGRIFFAGTETATKWSGYMEGAVEAGERAAREVLNGLGKVTEKDIWVQEPESKDVPAVEITHTFWERNLPSVSGLLKIIGFSTSVTALGFVLYKYKLLPRS | 146.1 ± 7.21 | 0.163 ± 0.00817 | – | – | – |
| MAO B (Homo sapiens) (protein, purchased Sigma Aldrich) MSNKCDVVVVGGGISGMAAAKLLHDSGLNVVVLEARDRVGGRTYTLRNQKVKYVDLGGSYVGPTQNRILRLAKELGLETYKVNEVERLIHHVKGKSYPFRGPFPPVWNPITYLDHNNFWRTMDDMGREIPSDAPWKAPLAEEWDNMTMKELLDKLCWTESAKQLATLFVNLCVTAETHEVSALWFLWYVKQCGGTTRIISTTNGGQERKFVGGSGQVSERIMDLLGDRVKLERPVIYIDQTRENVLVETLNHEMYEAKYVISAIPPTLGMKIHFNPPLPMMRNQMITRVPLGSVIKCIVYYKEPFWRKKDYCGTMIIDGEEAPVAYTLDDTKPEGNYAAIMGFILAHKARKLARLTKEERLKKLCELYAKVLGSLEALEPVHYEEKNWCEEQYSGGCYTTYFPPGILTQYGRVLRQPVDRIYFAGTETATHWSGYMEGAVEAGERAAREILHAMGKIPEDEIWQSEPESVDVPAQPITTTFLERHLPSVPGLLRLIGLTTIFSATALGFLAHKRGLLVRV | – | – | 106.8 ± 5.06 | 0.141 ± 0.007 | 1320 |
